These results are taken from patent publication US20070020327A1.

Read-outs that look alike come from different tables or passages of the source.

What all share (assay): competition with 125I-labelled standard peptide for purified HLA, gel filtration
On the technique in general: In gel filtration, larger molecules generally elute earlier.

The target in assay [1] is HLA-A*0201 (purified HLA class I molecule) (human).
The target of assay [2] is HLA-A*0202 (human).
The target in assay [3] is HLA-A*0203 (human). The settings on record: for binding affinity ratio: scale: ratio.
Assay [4] concerns the target HLA-A*0201 (human). The settings on record: for binding affinity ratio: scale: ratio.
The target of assay [5] is HLA-A*0206 (human).
The mark [6] stands for this setting: remark: other sources report otherwise.

For the molecule LVHPQWVL (modifications not checked) [PSA peptide LVHPQWVL (position 50, 8 amino acids)], the binding affinity ratio (IC50 of standard peptide / IC50 of test peptide) in assay [1] was determined as 0.0001.

For PAKITDVVKVL (modifications not checked), the binding affinity ratio (IC50 of standard peptide / IC50 of test peptide) in assay [2] was 0.0006; in assay [3], 0.0017; in assay [4] it was 0.0002; in assay [5], -0.0001.

PAKITDVVKV (modifications not checked): the binding affinity ratio (IC50 of standard peptide / IC50 of test peptide) in assay [2] (setting [6]) is 0.01; in assay [5] (setting [6]) it was 0.0006.

As to NMSLLKHQSL (modifications not checked) [Kallikrein 102 …], in assay [3] (setting [6]), the binding affinity ratio (IC50 of standard peptide / IC50 of test peptide) came out at 0.04.

For the molecule STCSGDSGGPL (modifications not checked) [PSA peptide … (position 203, 11 amino acids)], the binding affinity ratio in assay [3] (setting [6]) stood at 0.0092; in assay [4] (setting [6]), 0.0005; in assay [5] (remark: other sources report otherwise, scale: ratio), 0.0002.

As for VLAGGFFLV (modifications not checked) [peptide 1389.20 (PSM.27.V9)], the IC50 (as a rule, the concentration needed to halve the response being measured) in assay [2] amounted to 0.4 nM; in assay [3], 5 nM; in assay [4], 26 nM; in assay [5], 57 nM.

Consider KVLGLPTQEPA (modifications not checked) [… (Kallikrein, position 137, 11 amino acids)], for which the binding affinity ratio in assay [3] was determined as 0.0009; in assay [4], 0.0001.

Consider YTKVVHYRKWI (modifications not checked) [Kallikrein 243 peptide …], for which the figures for the binding affinity ratio (IC50 of the standard peptide / IC50 of the test peptide) in assay [2], in assay [4] and in assay [5] were -0.0001, 0.0001 and -0.0001, respectively.

As to YTKVVHYRKWI (modifications not checked) [PSA 239 peptide …], the binding affinity ratio (IC50 of the standard peptide / IC50 of the test peptide) is -0.0001 in assay [2], 0.0001 in assay [4] and -0.0001 in assay [5].

With YASGWGSI (modifications not checked) [Kallikrein 153 peptide YASGWGSI], the binding affinity ratio (IC50 of the standard peptide / IC50 of the test peptide) is 0.0009 in assay [2], 0.0003 in assay [3], -0.0001 in assay [4] and 0.0003 in assay [5].

As to YASGWGSI (modifications not checked) [PSA 149 peptide YASGWGSI], the binding affinity ratio (IC50 of the standard peptide / IC50 of the test peptide) in assay [2] was 0.0009; in assay [3] it was 0.0003; in assay [4] it was -0.0001; in assay [5] it was 0.0003.

Take MMNDQLMFL (modifications not checked) [peptide 1126.01 (PSM.663)]: the IC50 in assay [2] was 0.8 nM; in assay [3], 1.7 nM; in assay [5] it was 7.6 nM.

As to LVHNLTKEL (modifications not checked) [PSM peptide … (position 473, 9 amino acids)], the binding affinity ratio (IC50 of standard peptide / IC50 of test peptide) in assay [1] came to 0.0001.

Consider FLTLSVTWIGV (modifications not checked) [peptide 1419.27 (PSA.3.V11)], for which the IC50 in assay [2] amounted to 3 nM; in assay [3], 18 nM; in assay [4], 6.8 nM; in assay [5] it was 65 nM.

LVHPQWVL (modifications not checked) [Kallikrein (hK2) peptide LVHPQWVL (position 54, 8 amino acids)]: in assay [1], the binding affinity ratio (IC50 of standard peptide / IC50 of test peptide) is 0.0001.

As for KLQCVDLHVV (modifications not checked) [peptide 1419.24 (PSA.166.V10)], the IC50 in assay [3] (setting [6]) came to 9.5 nM.
